According to the RNAGym collection of RNA variant scans (doi:10.1073/pnas.2313332121):
This sample holds only a part of the variants without activity.

B1: TPR 5TU (parent)
chain: GGAUCUUCUCGAUCUAACAAAAAAGACAAAUCUGCCACAAAGCUUGAGAGCAUCUUCGGAUGCAGAGGCGGCAGCCUUCGGUGGCGCGAUAGCGCCAACGUUCUCAACUAUGACACGCAAAACGCGUGCUCCGUUGAAUGGAGUUUAUCAUG

Variants of: B1
Experiment: polymerase ribozyme fitness, log enrichment relative to wild type (log ratio); higher = more active; in vitro selection for triplet polymerase activity
Outline: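 The heterodimeric triplet polymerase ribozyme's subunits were each mutagenized into PCR-built libraries and transcribed. Every library was selected once, in triplicate, by annealing with a biotinylated primer, the partner subunit and triplets, incubating frozen at −7 °C, gel-excising extended constructs, capturing on streptavidin beads and running RT-PCR. Input and output libraries were Illumina-sequenced, with genotypes kept only at ≥10 input reads and ≥1 read per output. Fitness, from inverse-variance-weighted replicate averages, is the base-2 logarithm of genotype enrichment over wild-type enrichment.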

U15G C27G C76U C87G and C14U G74A C99A cannot be ordered by “polymerase ribozyme fitness (log ratio)” value: at most -4.2 for the first, at most -4.2 for the second.

First: C14U G141U
Second: A16G U56A
The “polymerase ribozyme fitness (log ratio)” value of the first is higher: 0.0902 for the first, -1.7 for the second.

Going from A17G A37U C87U C99A C123U to U15G A22G U56G C96U A121U, the “polymerase ribozyme fitness (log ratio)” value rises from -3.98 to -0.722.

Compared with A17G A22G U56A, A16C A89G is lower in “polymerase ribozyme fitness (log ratio)” value: 0.0483 for the first, -2.25 for the second.

Compared with U15G C35U A41C A115G U145G, A17C G81U C85A C95U C105G is higher in “polymerase ribozyme fitness (log ratio)” value: -4.04 for the first, -1.64 for the second.

Going from A16G C18A A26G C38U G42C G81A C87A C116A to A16U A20U U146A, the “polymerase ribozyme fitness (log ratio)” value rises from at most -4.2 to -3.95.

Going from A16G C35A to U15G C36G U111G G124A G141C A150U, the “polymerase ribozyme fitness (log ratio)” value falls from -3.53 to at most -4.2.

Going from A17C A30C to A16U A19U C32G A60U A91U C99U A138C, the “polymerase ribozyme fitness (log ratio)” value falls from -3.82 to at most -4.2.

Compared with A17C U55A G68A A73G C85U U127A G141U, A16G A19U C93A is higher in “polymerase ribozyme fitness (log ratio)” value: at most -4.2 for the first, -3.75 for the second.

A16G C36G and A16U G46C G50C G67A G74C C118U U130A are within 0.2 log units of each other in “polymerase ribozyme fitness (log ratio)” value: -4.12 for the first, -4.05 for the second.

Compared with C14U G74C A107G, U15A G58A G86A U144G is higher in “polymerase ribozyme fitness (log ratio)” value: at most -4.2 for the first, 0.552 for the second.

Compared with U15C A24G A39G G83A C99G, U15C C18A G83A C93U A122U is higher in “polymerase ribozyme fitness (log ratio)” value: at most -4.2 for the first, -1.53 for the second.

Compared with U15G G25C C51A C96G C149G, A17C C18G A40U G86U is higher in “polymerase ribozyme fitness (log ratio)” value: at most -4.2 for the first, -1.43 for the second.

U15A G50A U109G A110G and A16G A22U C85G G92A C93G C108G A113U G117C cannot be ordered by “polymerase ribozyme fitness (log ratio)” value: at most -4.2 for the first, at most -4.2 for the second.

A17C C18G A26U A41C U45G A49U U55A G62A G92U C108U C118U and A17G A19C G80C G92A C116U G136C G140A cannot be ordered by “polymerase ribozyme fitness (log ratio)” value: at most -4.2 for the first, at most -4.2 for the second.

Compared with A17G A52C, A17C C76U G92U C129A is lower in “polymerase ribozyme fitness (log ratio)” value: -0.98 for the first, -3.05 for the second.

First: A16C A19U
Second: U15C C27U U53A A122G
The “polymerase ribozyme fitness (log ratio)” value of the first is higher: -1.03 for the first, -1.39 for the second.

Going from A16G G128U to U15G A21C A26U C38G G92A A113C, the “polymerase ribozyme fitness (log ratio)” value falls from -3.4 to at most -4.2.

Compared with A17G A21G A52U U56A A91G, A16U G94A is higher in “polymerase ribozyme fitness (log ratio)” value: -4 for the first, -2.47 for the second.

Compared with A17G A21C C116U, U15A C75G C108U is lower in “polymerase ribozyme fitness (log ratio)” value: 0.03 for the first, -4.16 for the second.

U15G U45C G71A G94U U134C A138U U145G and A16G A17U A52C A91U C93U U111G C123U G124U G133A cannot be ordered by “polymerase ribozyme fitness (log ratio)” value: at most -4.2 for the first, at most -4.2 for the second.

First: A16U A41U G59A C116G C129U A150G
Second: A16G U33G U55A C95U
The “polymerase ribozyme fitness (log ratio)” value of the first is lower: at most -4.2 for the first, -3.89 for the second.

Compared with U15C A22C C51U G81U C85U G94A A122G, A16C U31A U104G A142C is lower in “polymerase ribozyme fitness (log ratio)” value: -1.17 for the first, -2.77 for the second.

Going from A16C C99G C125A to C14U G50C A89U C93G G143U, the “polymerase ribozyme fitness (log ratio)” value falls from -2.16 to at most -4.2.

A17C G74U C85A A91G G92C C93G C118A A120C and A16U A17U U44A C54U A66G A89G G140C cannot be ordered by “polymerase ribozyme fitness (log ratio)” value: at most -4.2 for the first, at most -4.2 for the second.

A16C G86C A110G and U15G U31G A40U C57A C95G C125U G140U cannot be ordered by “polymerase ribozyme fitness (log ratio)” value: at most -4.2 for the first, at most -4.2 for the second.

Going from U15C C54A C87U G94A A98U C125A to A16U G25C C72G C76G C96U A107U A115G C129U, the “polymerase ribozyme fitness (log ratio)” value falls from -3.98 to at most -4.2.

A16C A66U A122C U139A A142U and A16U U61A G74A C96G cannot be ordered by “polymerase ribozyme fitness (log ratio)” value: at most -4.2 for the first, at most -4.2 for the second.

Going from A16C C35U G80A G94A C118U to A16U A24U U33A C35U C87G, the “polymerase ribozyme fitness (log ratio)” value falls from -3.33 to -4.15.

Going from U15G U53A to U15C A21G A24U U53A, the “polymerase ribozyme fitness (log ratio)” value rises from -0.774 to 0.983.

Compared with A17C G58U G128A A138U, A16C A41C C57G G59C U135A is higher in “polymerase ribozyme fitness (log ratio)” value: -4.13 for the first, -3.85 for the second.

Going from U15G A30G C54A to C14U G94A G136U, the “polymerase ribozyme fitness (log ratio)” value rises from at most -4.2 to -3.85.

First: A17C A52G G81A G83A A98U
Second: U15A A47C C54G A115G U127C U146A
The “polymerase ribozyme fitness (log ratio)” value of the first is higher: -0.507 for the first, -1.14 for the second.

Compared with U15C U53A A73G C76U G92C, A16U C93U is lower in “polymerase ribozyme fitness (log ratio)” value: -1.85 for the first, -2.81 for the second.

First: U15G C129A
Second: A16U C38A C85A
The “polymerase ribozyme fitness (log ratio)” value of the first is higher: -2.55 for the first, -3.78 for the second.

A16G U33G C95G and A16C A24C G50C C85U G143U cannot be ordered by “polymerase ribozyme fitness (log ratio)” value: at most -4.2 for the first, at most -4.2 for the second.

First: A16G A30U U44A G81A C95U C125G
Second: A16C C38U G50A C95G C116G
The “polymerase ribozyme fitness (log ratio)” value of the first is lower: at most -4.2 for the first, -4.14 for the second.

A16U A47C U53A C85G C131A U134A G140U and C14U U15G A41C A49C C54G C75G C96U C123A A137U G141A G143C cannot be ordered by “polymerase ribozyme fitness (log ratio)” value: at most -4.2 for the first, at most -4.2 for the second.

First: U15G U44G A73C G74U G80C C93U G141C
Second: A17C C95U
The “polymerase ribozyme fitness (log ratio)” value of the first is lower: at most -4.2 for the first, 0.45 for the second.

Compared with U15G U55A, U15G G50A U53A A73U C87A A113C G140U is lower in “polymerase ribozyme fitness (log ratio)” value: -0.257 for the first, at most -4.2 for the second.

A16C C36G G92A C108A A113G U139A and A16U A22C A30U U55A C57A C76G G81U G84C cannot be ordered by “polymerase ribozyme fitness (log ratio)” value: at most -4.2 for the first, at most -4.2 for the second.

In the case of A16C U82A C95G G141A, the “polymerase ribozyme fitness (log ratio)” value is reported as -3.41.
